Experimental findings from paper PMC10143413, “Proteomic Profiling of Mouse Brain Pyruvate Kinase Binding Proteins: A Hint for Moonlighting Functions of PKM1?” (International Journal of Molecular Sciences, 2023) are described below.

In general, Kd refers to the free concentration of one partner at which half of the binding sites on the other are occupied at equilibrium, for simple one-to-one binding. Broadly, the koff is the first-order rate constant of dissociation. Usually kon stands for a measure of how fast the partners come together. Read a low kon as slow association.

The target of this assay is T1, Pyruvate kinase PKM1, purified from rabbit skeletal muscle (rabbit, UniProt P11974-1 1-531).
T1 construct: Pyruvate kinase PKM, isoform M1, rabbit skeletal muscle; called full-length PKM1; amine-coupled to a CM5 chip or used as analyte in SPR; also called full-length PKM1; PK1; source: isolated from skeletal muscles of adult rabbits, electrophoretically homogeneous
The assay can be described thus: SPR; Biacore T200, 25 °C; GAPDH, LDH or aldolase A amine-coupled to a CM5 chip, PKM1 as analyte in 0.05 M potassium phosphate buffer pH 7.4, 10 µL/min for 5 min; global fit to the 1:1 binding model. Conditions: both partners purified.

T1 sequence (P11974 whole entry, canonical isoform): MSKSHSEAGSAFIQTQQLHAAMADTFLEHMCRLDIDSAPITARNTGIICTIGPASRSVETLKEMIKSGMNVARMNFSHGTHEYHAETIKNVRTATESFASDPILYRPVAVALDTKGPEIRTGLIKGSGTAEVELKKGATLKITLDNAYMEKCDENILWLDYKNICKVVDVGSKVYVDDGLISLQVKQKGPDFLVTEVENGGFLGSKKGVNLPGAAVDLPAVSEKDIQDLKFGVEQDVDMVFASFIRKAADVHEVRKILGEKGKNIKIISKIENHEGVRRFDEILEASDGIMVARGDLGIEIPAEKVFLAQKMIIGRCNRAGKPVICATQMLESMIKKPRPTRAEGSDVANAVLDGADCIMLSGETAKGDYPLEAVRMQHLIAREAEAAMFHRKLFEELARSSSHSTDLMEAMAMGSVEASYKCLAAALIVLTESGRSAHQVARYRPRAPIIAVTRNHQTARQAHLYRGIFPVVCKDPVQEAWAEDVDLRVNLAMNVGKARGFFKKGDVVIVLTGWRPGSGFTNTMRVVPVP

B1: Glyceraldehyde 3-phosphate dehydrogenase, purified from rabbit skeletal muscle (enzyme)
chain: not shown
notes: Glyceraldehyde-3-phosphate dehydrogenase, rabbit skeletal muscle; also called GAPDH; GAPD; source: isolated from skeletal muscles of adult rabbits, electrophoretically homogeneous
As for B1, the affinity, expressed as Kd, was 1060 nM; the koff stood at 0.00162 s⁻¹; the kon was 1530 M⁻¹ s⁻¹.
